Article PMC2139591

Molecular target: NGF-specific-receptor-like molecule (NSR) from C 1300 neuroblastoma cells (mouse (endogenous in C 1300 NB cells))
Test: radioligand binding

- Ka: 1e+07 M⁻¹
Substance: nerve growth factor (NGF), mouse salivary glands (from UniProt P01139 122-241) (ligand)
